PMC5906006 (PLoS ONE, 2018)
Bridge positions count the residues as written; N and C are the ends. Square brackets hold non-standard residues; d marks the D form. Peptide text beside a SMILES is read from it. * marks the point of attachment. X1 = O=C(O)CN1CCN(CC(=O)O)CCN([C@H](CCC(=O)*)C(=O)O)CC1; dPhe(4-NHCONH2) = NC(=O)Nc1ccc(C[C@@H](N)C(=O)O)cc1; Dihydroorotyl(S) = O=C1C[C@@H](C(=O)*)NC(=O)N1; Phe(4-Cl) = N[C@@H](Cc1ccc(Cl)cc1)C(=O)O; Phe(4-NH2) = Nc1ccc(C[C@H](N)C(=O)O)cc1

Tests used:
[1] = Biodistribution in HEK-hsst2 tumor-bearing mice; conditions: female, Balb/c nude, mouse, in vivo, iv, total radioactivity
[2] = biological target: T1, human sst2 receptors (Homo sapiens, UniProt P30874); experiment: Saturation binding on HEK-hsst2 cells; conditions: 2 hours at +4 °C
T1 construct: expressed in transfected cells; host or cells: HEK-293 (HEK-hsst2), a gift from Prof; Schulz, University of Jena
T1 sequence (P30874 whole entry): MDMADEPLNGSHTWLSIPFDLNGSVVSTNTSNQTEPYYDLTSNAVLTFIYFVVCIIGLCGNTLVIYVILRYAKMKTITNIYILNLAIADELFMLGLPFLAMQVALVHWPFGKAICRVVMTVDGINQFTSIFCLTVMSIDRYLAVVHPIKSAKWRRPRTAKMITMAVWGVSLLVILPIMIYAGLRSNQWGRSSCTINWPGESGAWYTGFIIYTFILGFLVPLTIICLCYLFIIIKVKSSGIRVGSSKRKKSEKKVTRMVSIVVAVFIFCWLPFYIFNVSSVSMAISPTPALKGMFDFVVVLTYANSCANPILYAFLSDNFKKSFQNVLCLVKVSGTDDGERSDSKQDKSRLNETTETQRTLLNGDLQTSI
Method: The saturation binding experiments were performed with radioligand (^64/natCu-NODAGA-JR11 and ^64/natCu-DOTA-TATE) concentrations ranging from 0.5–75 nM and 0.5–90 nM, respectively, for 2 hours at +4 °C as described previously [24]. The Kd and Bmax values were calculated using GraphPad.

With C[C@@H](O)[C@H](NC(=O)[C@@H]1CSSC[C@H](NC(=O)[C@@H](Cc2ccccc2)NC(=O)CN2CCN(CC(=O)O)CCN(CC(=O)O)CCN(CC(=O)O)CC2)C(=O)N[C@@H](Cc2ccc(O)cc2)C(=O)N[C@H](Cc2c[nH]c3ccccc23)C(=O)N[C@@H](CCCCN)C(=O)N[C@@H]([C@@H](C)O)C(=O)N1)C(=O)O [^64Cu-DOTA-TATE, [^64Cu-DOTA, Tyr^3, Thr^8]octreotide, metal not drawn, reference compound] the tissue uptake at 1 h ([1]; 10 pmol, Adrenal uptake) was 4.7 ± 1.5 %ID/g, the tissue uptake at 24 h ([1]; 10 pmol, Adrenal uptake) was 0.7 ± 0.3 %ID/g and the tissue uptake at 1 h ([1]; 10 pmol, Blood uptake) was 0.7 ± 0.2 %ID/g. The tissue uptake at 4 h ([1]; 10 pmol, Blood uptake) was 0.6 ± 0.1 %ID/g, the tissue uptake at 24 h ([1]; 10 pmol, Blood uptake) was 0.5 ± 0.05 %ID/g and the tissue uptake at 1 h ([1]; 10 pmol, Bone uptake) was 1.6 ± 0.5 %ID/g. It also gave a tissue uptake at 24 h ([1]; 10 pmol, Bone uptake) of 0.8 ± 0.1 %ID/g, a tissue uptake at 1 h ([1]; 10 pmol, Heart uptake) of 1.1 ± 0.1 %ID/g and a tissue uptake at 4 h ([1]; 10 pmol, Heart uptake) of 1.2 ± 0.3 %ID/g. For the same molecule, the tissue uptake at 24 h ([1]; 10 pmol, Heart uptake) was 1.1 ± 0.2 %ID/g, the tissue uptake at 24 h ([1]; 10 pmol, Intestine uptake) was 2 ± 0.3 %ID/g and the tissue uptake at 1 h ([1]; 10 pmol, Kidney uptake) was 4.8 ± 0.5 %ID/g. For the same molecule, the tissue uptake at 4 h ([1]; 10 pmol, Kidney uptake) was 3 ± 0.6 %ID/g, the tissue uptake at 1 h ([1]; 10 pmol, Liver uptake) was 6.1 ± 1.2 %ID/g and the tissue uptake at 4 h ([1]; 10 pmol, Liver uptake) was 5.2 ± 1.6 %ID/g. The tissue uptake at 24 h ([1]; 10 pmol, Liver uptake) was 4.6 ± 0.6 %ID/g, the tissue uptake at 1 h ([1]; 10 pmol, Lung uptake) was 9.8 ± 2.6 %ID/g and the tissue uptake at 4 h ([1]; 10 pmol, Lung uptake) was 5.4 ± 1.4 %ID/g. For the same molecule, the tissue uptake at 1 h ([1]; 10 pmol, Muscle uptake) was 0.3 ± 0.1 %ID/g, the tissue uptake at 4 h ([1]; 10 pmol, Muscle uptake) was 0.2 ± 0.03 %ID/g and the tissue uptake at 24 h ([1]; 10 pmol, Muscle uptake) was 0.3 ± 0.1 %ID/g. The tissue uptake at 1 h ([1]; 10 pmol, Pancreas uptake) was 24.6 ± 2.4 %ID/g, the tissue uptake at 4 h ([1]; 10 pmol, Pancreas uptake) was 4.4 ± 1 %ID/g and the tissue uptake at 24 h ([1]; 10 pmol, Pancreas uptake) was 0.95 ± 0.1 %ID/g. It also gave a tissue uptake at 4 h ([1]; 10 pmol, Spleen uptake) of 1.1 ± 0.4 %ID/g, a tissue uptake at 24 h ([1]; 10 pmol, Spleen uptake) of 1.2 ± 0.1 %ID/g and a tissue uptake at 1 h ([1]; 10 pmol, Stomach uptake) of 16.1 ± 1.7 %ID/g. It also gave a tissue uptake at 4 h ([1]; 10 pmol, Stomach uptake) of 10.6 ± 1.6 %ID/g, a tissue uptake at 24 h ([1]; 10 pmol, Stomach uptake) of 3.1 ± 0.3 %ID/g and a tissue uptake at 1 h ([1]; 10 pmol, Tumor uptake) of 20.3 ± 2.5 %ID/g. The tissue uptake at 4 h ([1]; 10 pmol, Tumor uptake) was 14.9 ± 1 %ID/g.

Molecule C[C@@H](O)[C@@H]1NC(=O)[C@H](CCCCN)NC(=O)[C@@H](Cc2ccc(NC(N)=O)cc2)NC(=O)[C@H](Cc2ccc(NC(=O)[C@@H]3CC(=O)NC(=O)N3)cc2)NC(=O)[C@H](NC(=O)[C@H](Cc2ccc(Cl)cc2)NC(=O)CC[C@H](C(=O)O)N2CCN(CC(=O)O)CCN(CC(=O)O)CC2)CSSC[C@@H](C(=O)N[C@H](Cc2ccc(O)cc2)C(N)=O)NC1=O [^64Cu-NODAGA-JR11, metal not drawn] (X1-[Phe(4-Cl)][dC][Phe(4-NH2)](Dihydroorotyl(S))[dPhe(4-NHCONH2)]KTC[dY]-NH2; disulfide 2-7) has a tissue uptake at 1 h ([1]; 10 pmol, Adrenal uptake) of 4.8 ± 0.8 %ID/g, a tissue uptake at 4 h ([1]; 10 pmol, Adrenal uptake) of 3.5 ± 0.9 %ID/g and a tissue uptake at 24 h ([1]; 10 pmol, Adrenal uptake) of 1.5 ± 0.6 %ID/g. The tissue uptake at 1 h ([1]; 10 pmol, Blood uptake) was 0.6 ± 0.2 %ID/g, the tissue uptake at 4 h ([1]; 10 pmol, Blood uptake) was 0.1 %ID/g and the tissue uptake at 24 h ([1]; 10 pmol, Blood uptake) was 0.1 %ID/g. For the same molecule, the tissue uptake at 1 h ([1]; 10 pmol, Bone uptake) was 0.7 ± 0.2 %ID/g, the tissue uptake at 4 h ([1]; 10 pmol, Bone uptake) was 0.8 ± 0.2 %ID/g and the tissue uptake at 24 h ([1]; 10 pmol, Bone uptake) was 0.4 ± 0.2 %ID/g. It also gave a tissue uptake at 1 h ([1]; 10 pmol, Heart uptake) of 0.5 ± 0.1 %ID/g, a tissue uptake at 4 h ([1]; 10 pmol, Heart uptake) of 0.3 ± 0.1 %ID/g and a tissue uptake at 24 h ([1]; 10 pmol, Heart uptake) of 0.2 ± 0.1 %ID/g. It also gave a tissue uptake at 1 h ([1]; 10 pmol, Intestine uptake) of 0.9 ± 0.4 %ID/g, a tissue uptake at 4 h ([1]; 10 pmol, Intestine uptake) of 0.7 ± 0.1 %ID/g and a tissue uptake at 24 h ([1]; 10 pmol, Intestine uptake) of 0.4 %ID/g. It also gave a tissue uptake at 1 h ([1]; 10 pmol, Kidney uptake) of 10.3 ± 0.7 %ID/g, a tissue uptake at 4 h ([1]; 10 pmol, Kidney uptake) of 6.9 ± 0.9 %ID/g and a tissue uptake at 24 h ([1]; 10 pmol, Kidney uptake) of 2.2 ± 0.6 %ID/g. It also gave a tissue uptake at 1 h ([1]; 10 pmol, Liver uptake) of 1.7 ± 0.2 %ID/g, a tissue uptake at 4 h ([1]; 10 pmol, Liver uptake) of 0.7 ± 0.3 %ID/g and a tissue uptake at 24 h ([1]; 10 pmol, Liver uptake) of 0.3 ± 0.1 %ID/g. It also gave a tissue uptake at 1 h ([1]; 10 pmol, Lung uptake) of 3 ± 1 %ID/g, a tissue uptake at 4 h ([1]; 10 pmol, Lung uptake) of 0.8 ± 0.2 %ID/g and a tissue uptake at 24 h ([1]; 10 pmol, Lung uptake) of 0.5 ± 0.1 %ID/g. For the same molecule, the tissue uptake at 1 h ([1]; 10 pmol, Muscle uptake) was 0.4 %ID/g, the tissue uptake at 4 h ([1]; 10 pmol, Muscle uptake) was 0.1 ± 0.1 %ID/g and the tissue uptake at 24 h ([1]; 10 pmol, Muscle uptake) was 0.04 %ID/g. The tissue uptake at 1 h ([1]; 10 pmol, Pancreas uptake) was 5.6 ± 0.6 %ID/g, the tissue uptake at 4 h ([1]; 10 pmol, Pancreas uptake) was 0.4 ± 0.1 %ID/g and the tissue uptake at 24 h ([1]; 10 pmol, Pancreas uptake) was 0.2 %ID/g. The tissue uptake at 1 h ([1]; 10 pmol, Spleen uptake) was 0.9 ± 0.2 %ID/g, the tissue uptake at 4 h ([1]; 10 pmol, Spleen uptake) was 1.2 ± 0.2 %ID/g and the tissue uptake at 24 h ([1]; 10 pmol, Spleen uptake) was 0.9 ± 0.1 %ID/g. The tissue uptake at 1 h ([1]; 10 pmol, Stomach uptake) was 4.9 ± 1.6 %ID/g, the tissue uptake at 4 h ([1]; 10 pmol, Stomach uptake) was 0.9 ± 0.2 %ID/g and the tissue uptake at 24 h ([1]; 10 pmol, Stomach uptake) was 0.4 %ID/g. It also gave a tissue uptake at 1 h ([1]; 10 pmol, Tumor uptake) of 20.6 ± 3.7 %ID/g, a tissue uptake at 4 h ([1]; 10 pmol, Tumor uptake) of 19 ± 3.1 %ID/g and a tissue uptake at 24 h ([1]; 10 pmol, Tumor uptake) of 7.7 ± 2.5 %ID/g. For the same molecule, the tissue uptake at 1 h ([1]; 200 pmol, Adrenal uptake) was 2.1 ± 1.2 %ID/g, the tissue uptake at 1 h ([1]; 200 pmol, Blood uptake) was 0.5 ± 0.1 %ID/g and the tissue uptake at 1 h ([1]; 200 pmol, Bone uptake) was 0.5 ± 0.3 %ID/g. For the same molecule, the tissue uptake at 1 h ([1]; 200 pmol, Heart uptake) was 0.3 ± 1 %ID/g, the tissue uptake at 1 h ([1]; 200 pmol, Intestine uptake) was 0.5 ± 0.1 %ID/g and the tissue uptake at 1 h ([1]; 200 pmol, Kidney uptake) was 10.6 ± 1.6 %ID/g. The tissue uptake at 1 h ([1]; 200 pmol, Liver uptake) was 1.6 ± 0.3 %ID/g, the tissue uptake at 1 h ([1]; 200 pmol, Lung uptake) was 0.4 ± 0.2 %ID/g and the tissue uptake at 1 h ([1]; 200 pmol, Muscle uptake) was 0.2 %ID/g. For the same molecule, the tissue uptake at 1 h ([1]; 200 pmol, Pancreas uptake) was 1.7 ± 0.3 %ID/g, the tissue uptake at 1 h ([1]; 200 pmol, Spleen uptake) was 0.7 ± 0.1 %ID/g and the tissue uptake at 1 h ([1]; 200 pmol, Stomach uptake) was 1.7 ± 0.7 %ID/g. It also gave a tissue uptake at 1 h ([1]; 200 pmol, Tumor uptake) of 16.4 ± 0.7 %ID/g, a tissue uptake at 1 h ([1]; 1000 pmol, Adrenal uptake) of 1.4 ± 0.6 %ID/g and a tissue uptake at 1 h ([1]; 1000 pmol, Blood uptake) of 0.4 ± 0.1 %ID/g. For the same molecule, the tissue uptake at 1 h ([1]; 1000 pmol, Bone uptake) was 0.8 ± 0.4 %ID/g, the tissue uptake at 1 h ([1]; 1000 pmol, Heart uptake) was 0.3 ± 0.1 %ID/g and the tissue uptake at 1 h ([1]; 1000 pmol, Intestine uptake) was 0.3 ± 0.1 %ID/g. For the same molecule, the tissue uptake at 1 h ([1]; 1000 pmol, Kidney uptake) was 7.9 ± 0.4 %ID/g, the tissue uptake at 1 h ([1]; 1000 pmol, Liver uptake) was 1 ± 0.2 %ID/g and the tissue uptake at 1 h ([1]; 1000 pmol, Lung uptake) was 0.3 ± 0.1 %ID/g. The tissue uptake at 1 h ([1]; 1000 pmol, Muscle uptake) was 0.3 ± 0.2 %ID/g, the tissue uptake at 1 h ([1]; 1000 pmol, Pancreas uptake) was 0.8 ± 0.2 %ID/g and the tissue uptake at 1 h ([1]; 1000 pmol, Spleen uptake) was 0.5 ± 0.1 %ID/g. It also gave a tissue uptake at 1 h ([1]; 1000 pmol, Stomach uptake) of 0.9 ± 0.2 %ID/g, a tissue uptake at 1 h ([1]; 1000 pmol, Tumor uptake) of 9.7 ± 2.4 %ID/g and a tissue uptake at 1 h ([1]; 2000 pmol, Adrenal uptake) of 1.9 ± 0.7 %ID/g. The tissue uptake at 1 h ([1]; 2000 pmol, Blood uptake) was 0.3 ± 0.1 %ID/g, the tissue uptake at 1 h ([1]; 2000 pmol, Bone uptake) was 0.2 %ID/g and the tissue uptake at 1 h ([1]; 2000 pmol, Heart uptake) was 0.2 ± 0.1 %ID/g. It also gave a tissue uptake at 1 h ([1]; 2000 pmol, Intestine uptake) of 0.4 ± 0.1 %ID/g, a tissue uptake at 1 h ([1]; 2000 pmol, Kidney uptake) of 8.1 ± 0.7 %ID/g and a tissue uptake at 1 h ([1]; 2000 pmol, Liver uptake) of 0.8 ± 0.1 %ID/g. The tissue uptake at 1 h ([1]; 2000 pmol, Lung uptake) was 0.3 %ID/g, the tissue uptake at 1 h ([1]; 2000 pmol, Muscle uptake) was 0.2 %ID/g and the tissue uptake at 1 h ([1]; 2000 pmol, Pancreas uptake) was 0.6 ± 0.1 %ID/g. It also gave a tissue uptake at 1 h ([1]; 2000 pmol, Spleen uptake) of 0.6 ± 0.1 %ID/g, a tissue uptake at 1 h ([1]; 2000 pmol, Stomach uptake) of 0.8 ± 0.1 %ID/g and a tissue uptake at 1 h ([1]; 2000 pmol, Tumor uptake) of 9.2 ± 0.4 %ID/g. It also gave a Kd [2] of 5.7 ± 0.95 nM.
